This note sets out measurements from publication doi:10.1101/689042v1.

Substrate in series [1]: OC[C@@H](O)[C@@H](O)[C@H](O)[C@@H](O)CO
The series can be described thus: purified protein. The format is biochemical, Sinorhizobium meliloti. Particulars: 1.5 mM NAD+, 20 mM CAPS pH 11.

Substrate in series [2]: OC[C@@H](O)[C@H](O)[C@H](O)[C@@H](O)CO
Description: purified protein. Conditions: 1.5 mM NAD+, 20 mM CAPS pH 11. The format is biochemical, Sinorhizobium meliloti.

B1: SmoS (SmSmoS) (Sinorhizobium meliloti 1021) (protein)
chain: MKRLEGKSALITGSARGIGRAFAEAYVREGATVAIADIDIERARQAAAEIGPAAYAVQMDVTRQDSIDAAIAATVEHAGGLDILVNNAALFDLAPIVEITRESYEKLFAINVAGTLFTLQAAARQMIAQGRGGKIINMASQAGRRGEALVAIYCATKAAVISLTQSAGLDLIKHRINVNAIAPGVVDGEHWDGVDALFARYENRPRGEKKRLVGEAVPFGRMGTAEDLTGMAIFLASAESDYIVSQTYNVDGGNWMS
For the protein B1, the Km (commonly the concentration of substrate that gives half-maximal velocity) amounted to 2500 µM in “purified protein [1]” and 1200 µM in “purified protein [2]”. Further, the kcat (in general, the number of substrate molecules converted per active site and unit of time at saturation) in the series “purified protein [1]” worked out at 25625.6 s⁻¹; in “purified protein [2]” it was 3227.1 s⁻¹.
